According to patent publication US20210388087A1 (Chugai, published 2021):
Substitutions are numbered along the chain they refer to. In names and notes the source's numbering stands. Blank lines part the entries; values can stand above or below the binder they belong to.

Target: T1, Human CD3eg linker (human)
T1 construct: Single chain: epsilon and gamma subunits of human CD3 joined by a 29-mer linker, Flag-tag at the C-terminus; also called recombinant human CD3
T1 chain: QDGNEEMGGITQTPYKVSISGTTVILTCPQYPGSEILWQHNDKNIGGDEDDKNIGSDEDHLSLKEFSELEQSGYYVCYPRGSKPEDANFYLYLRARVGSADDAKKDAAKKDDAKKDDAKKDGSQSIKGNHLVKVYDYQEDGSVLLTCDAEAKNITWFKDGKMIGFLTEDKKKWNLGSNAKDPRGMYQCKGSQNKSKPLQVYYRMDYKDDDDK
Assay: Biacore SPR, vs template H183/L072

- fold change of affinity: 0.6 fold
B4: H183/L072 VH N53K (antibody, name in Kabat numbering, V domains shown)
VH: QVQLVESGGGLVQPGRSLRLSCAASGFTFSNAWMHWVRQAPGKGLEWVAQIKDKGKAYAAYYAPSVKGRFTISRDDSKNSIYLQMNSLKTEDTAVYYCHYVHYASASTVLPAFGVDAWGQGTTVTVSS
VL: DIVMTQSPLSLPVTPGEPASISCQASQELVHMNRNTYLHWYQQKPGQAPRLLIYKVSNRFPGVPDRFSGSGSGTDFTLKISRVEAEDVGVYYCAQGTSVPFTFGQGTKLEIK

- fold change of affinity: 0.8 fold
B7: H183/L072 VH N53F (antibody, name in Kabat numbering, V domains shown)
VH: B4 VH with K56F
VL: B4 VL

- fold change of affinity: 0 fold
B8: H183/L072 VH N53P (antibody, name in Kabat numbering, V domains shown)
VH: B4 VH with K56P
VL: B4 VL

- fold change of affinity: 1.1 fold
B11: H183/L072 VH N53H (antibody, name in Kabat numbering, V domains shown)
VH: B4 VH with K56H
VL: B4 VL

- fold change of affinity: 0.5 fold
B16: H183/L072 VH N53M (antibody, name in Kabat numbering, V domains shown)
VH: B4 VH with K56M
VL: B4 VL

- fold change of affinity: 0.6 fold
B18: H183/L072 VH N53L (antibody, name in Kabat numbering, V domains shown)
VH: B4 VH with K56L
VL: B4 VL

- fold change of affinity: 0.4 fold
B21: H183/L072 VH N53I (antibody, name in Kabat numbering, V domains shown)
VH: B4 VH with K56I
VL: B4 VL

- fold change of affinity: 0.4 fold
B23: H183/L072 VH N53D (antibody, name in Kabat numbering, V domains shown)
VH: B4 VH with K56D
VL: B4 VL

- fold change of affinity: 0.5 fold
B24: H183/L072 VH N53E (antibody, name in Kabat numbering, V domains shown)
VH: B4 VH with K56E
VL: B4 VL

- fold change of affinity: 0.6 fold
B27: H183/L072 VH N53T (antibody, name in Kabat numbering, V domains shown)
VH: B4 VH with K56T
VL: B4 VL

- fold change of affinity: 0.5 fold
B29: H183/L072 VH N53Q (antibody, name in Kabat numbering, V domains shown)
VH: B4 VH with K56Q
VL: B4 VL

- fold change of affinity: 0.8 fold
B33: H183/L072 VH N53R (antibody, name in Kabat numbering, V domains shown)
VH: B4 VH with K56R
VL: B4 VL

- fold change of affinity: 0.7 fold
B34: H183/L072 VH N53A (antibody, name in Kabat numbering, V domains shown)
VH: B4 VH with K56A
VL: B4 VL

- fold change of affinity: 0.4 fold
B35: H183/L072 VH N53G (antibody, name in Kabat numbering, V domains shown)
VH: B4 VH with K56G
VL: B4 VL

- fold change of affinity: 0.8 fold
B45: H183/L072 VH N53S (antibody, name in Kabat numbering, V domains shown)
VH: B4 VH with K56S
VL: B4 VL

Second part, the binder before the results:

B1: H183/L072 VH M34I (antibody, name in Kabat numbering, V domains shown)
VH: B4 VH with M34I, K56N
VL: B4 VL
- fold change of affinity: 0.6 fold

B2: H183/L072 VH M34K (antibody, name in Kabat numbering, V domains shown)
VH: B4 VH with M34K, K56N
VL: B4 VL
- fold change of affinity: 0 fold

B3: H183/L072 VH N31P (antibody, name in Kabat numbering, V domains shown)
VH: B4 VH with N31P, K56N
VL: B4 VL
- fold change of affinity: 0.1 fold

B5: H183/L072 VH N31M (antibody, name in Kabat numbering, V domains shown)
VH: B4 VH with N31M, K56N
VL: B4 VL
- fold change of affinity: 0.2 fold

B6: H183/L072 VH N31R (antibody, name in Kabat numbering, V domains shown)
VH: B4 VH with N31R, K56N
VL: B4 VL
- fold change of affinity: 0.5 fold

B9: H183/L072 VH N31V (antibody, name in Kabat numbering, V domains shown)
VH: B4 VH with N31V, K56N
VL: B4 VL
- fold change of affinity: 0.5 fold

B10: H183/L072 VH M34V (antibody, name in Kabat numbering, V domains shown)
VH: B4 VH with M34V, K56N
VL: B4 VL
- fold change of affinity: 0.1 fold

B12: H183/L072 VH N31H (antibody, name in Kabat numbering, V domains shown)
VH: B4 VH with N31H, K56N
VL: B4 VL
- fold change of affinity: 0.3 fold

B13: H183/L072 VH N31K (antibody, name in Kabat numbering, V domains shown)
VH: B4 VH with N31K, K56N
VL: B4 VL
- fold change of affinity: 0.4 fold

B14: H183/L072 VH N31E (antibody, name in Kabat numbering, V domains shown)
VH: B4 VH with N31E, K56N
VL: B4 VL
- fold change of affinity: 0 fold

B15: H183/L072 VH N31T (antibody, name in Kabat numbering, V domains shown)
VH: B4 VH with N31T, K56N
VL: B4 VL
- fold change of affinity: 0.6 fold

B17: H183/L072 VH N31D (antibody, name in Kabat numbering, V domains shown)
VH: B4 VH with N31D, K56N
VL: B4 VL
- fold change of affinity: 0.1 fold

B19: H183/L072 VH N31L (antibody, name in Kabat numbering, V domains shown)
VH: B4 VH with N31L, K56N
VL: B4 VL
- fold change of affinity: 0.2 fold

B20: H183/L072 VH N31W (antibody, name in Kabat numbering, V domains shown)
VH: B4 VH with N31W, K56N
VL: B4 VL
- fold change of affinity: 0.4 fold

B22: H183/L072 VH M34Y (antibody, name in Kabat numbering, V domains shown)
VH: B4 VH with M34Y, K56N
VL: B4 VL
- fold change of affinity: 0 fold

B25: H183/L072 VH M34Q (antibody, name in Kabat numbering, V domains shown)
VH: B4 VH with M34Q, K56N
VL: B4 VL
- fold change of affinity: 0 fold

B26: H183/L072 VH M34R (antibody, name in Kabat numbering, V domains shown)
VH: B4 VH with M34R, K56N
VL: B4 VL
- fold change of affinity: 0 fold

B28: H183/L072 VH N31I (antibody, name in Kabat numbering, V domains shown)
VH: B4 VH with N31I, K56N
VL: B4 VL
- fold change of affinity: 0.5 fold

B30: H183/L072 VH M34L (antibody, name in Kabat numbering, V domains shown)
VH: B4 VH with M34L, K56N
VL: B4 VL
- fold change of affinity: 0.7 fold

B31: H183/L072 VH N31Q (antibody, name in Kabat numbering, V domains shown)
VH: B4 VH with N31Q, K56N
VL: B4 VL
- fold change of affinity: 0.2 fold

B32: H183/L072 VH N31G (antibody, name in Kabat numbering, V domains shown)
VH: B4 VH with N31G, K56N
VL: B4 VL
- fold change of affinity: 0.3 fold

B36: H183/L072 VH M34S (antibody, name in Kabat numbering, V domains shown)
VH: B4 VH with M34S, K56N
VL: B4 VL
- fold change of affinity: 0 fold

B37: H183/L072 VH N31F (antibody, name in Kabat numbering, V domains shown)
VH: B4 VH with N31F, K56N
VL: B4 VL
- fold change of affinity: 0.5 fold

B38: H183/L072 VH M34W (antibody, name in Kabat numbering, V domains shown)
VH: B4 VH with M34W, K56N
VL: B4 VL
- fold change of affinity: 0 fold

B39: H183/L072 VH N31A (antibody, name in Kabat numbering, V domains shown)
VH: B4 VH with N31A, K56N
VL: B4 VL
- fold change of affinity: 0.4 fold

B40: H183/L072 VH N31S (antibody, name in Kabat numbering, V domains shown)
VH: B4 VH with N31S, K56N
VL: B4 VL
- fold change of affinity: 0.5 fold

B41: H183/L072 VH M34P (antibody, name in Kabat numbering, V domains shown)
VH: B4 VH with M34P, K56N
VL: B4 VL
- fold change of affinity: 0 fold

B42: H183/L072 VH M34N (antibody, name in Kabat numbering, V domains shown)
VH: B4 VH with M34N, K56N
VL: B4 VL
- fold change of affinity: 0 fold

B43: H183/L072 VH N31Y (antibody, name in Kabat numbering, V domains shown)
VH: B4 VH with N31Y, K56N
VL: B4 VL
- fold change of affinity: 0.3 fold

B44: H183/L072 VH M34T (antibody, name in Kabat numbering, V domains shown)
VH: B4 VH with M34T, K56N
VL: B4 VL
- fold change of affinity: 0 fold
